Measured values from PMC9531947, “Targeting A-kinase anchoring protein 12 phosphorylation in hepatic stellate cells regulates liver injury and fibrosis in mouse models” (eLife, 2022).

Target: T1, AKAP12 with its five activation-responsive phospho-sites deleted by CRISPR-directed HDR, human HSCs (human (endogenous locus in primary …, UniProt Q02952-1 1-1782, deletion of the five phospho-sites T675, S676, S678, S687, S688 (PDEL; limits …)
T1 construct: human AKAP12 with the region of the phospho-sites T675, S676, S678, S687, S688 deleted; The transfected cells are a mixture of edited and unedited cells; the co-precipitate with the AKAP12 antibody holds both forms; also called CRISPR-edited AKAP12; PDEL (human); source: in cell extract and fixed cells
T1 sequence (Q02952 other isoform, or with tags, fused parts or gaps with the stated changes): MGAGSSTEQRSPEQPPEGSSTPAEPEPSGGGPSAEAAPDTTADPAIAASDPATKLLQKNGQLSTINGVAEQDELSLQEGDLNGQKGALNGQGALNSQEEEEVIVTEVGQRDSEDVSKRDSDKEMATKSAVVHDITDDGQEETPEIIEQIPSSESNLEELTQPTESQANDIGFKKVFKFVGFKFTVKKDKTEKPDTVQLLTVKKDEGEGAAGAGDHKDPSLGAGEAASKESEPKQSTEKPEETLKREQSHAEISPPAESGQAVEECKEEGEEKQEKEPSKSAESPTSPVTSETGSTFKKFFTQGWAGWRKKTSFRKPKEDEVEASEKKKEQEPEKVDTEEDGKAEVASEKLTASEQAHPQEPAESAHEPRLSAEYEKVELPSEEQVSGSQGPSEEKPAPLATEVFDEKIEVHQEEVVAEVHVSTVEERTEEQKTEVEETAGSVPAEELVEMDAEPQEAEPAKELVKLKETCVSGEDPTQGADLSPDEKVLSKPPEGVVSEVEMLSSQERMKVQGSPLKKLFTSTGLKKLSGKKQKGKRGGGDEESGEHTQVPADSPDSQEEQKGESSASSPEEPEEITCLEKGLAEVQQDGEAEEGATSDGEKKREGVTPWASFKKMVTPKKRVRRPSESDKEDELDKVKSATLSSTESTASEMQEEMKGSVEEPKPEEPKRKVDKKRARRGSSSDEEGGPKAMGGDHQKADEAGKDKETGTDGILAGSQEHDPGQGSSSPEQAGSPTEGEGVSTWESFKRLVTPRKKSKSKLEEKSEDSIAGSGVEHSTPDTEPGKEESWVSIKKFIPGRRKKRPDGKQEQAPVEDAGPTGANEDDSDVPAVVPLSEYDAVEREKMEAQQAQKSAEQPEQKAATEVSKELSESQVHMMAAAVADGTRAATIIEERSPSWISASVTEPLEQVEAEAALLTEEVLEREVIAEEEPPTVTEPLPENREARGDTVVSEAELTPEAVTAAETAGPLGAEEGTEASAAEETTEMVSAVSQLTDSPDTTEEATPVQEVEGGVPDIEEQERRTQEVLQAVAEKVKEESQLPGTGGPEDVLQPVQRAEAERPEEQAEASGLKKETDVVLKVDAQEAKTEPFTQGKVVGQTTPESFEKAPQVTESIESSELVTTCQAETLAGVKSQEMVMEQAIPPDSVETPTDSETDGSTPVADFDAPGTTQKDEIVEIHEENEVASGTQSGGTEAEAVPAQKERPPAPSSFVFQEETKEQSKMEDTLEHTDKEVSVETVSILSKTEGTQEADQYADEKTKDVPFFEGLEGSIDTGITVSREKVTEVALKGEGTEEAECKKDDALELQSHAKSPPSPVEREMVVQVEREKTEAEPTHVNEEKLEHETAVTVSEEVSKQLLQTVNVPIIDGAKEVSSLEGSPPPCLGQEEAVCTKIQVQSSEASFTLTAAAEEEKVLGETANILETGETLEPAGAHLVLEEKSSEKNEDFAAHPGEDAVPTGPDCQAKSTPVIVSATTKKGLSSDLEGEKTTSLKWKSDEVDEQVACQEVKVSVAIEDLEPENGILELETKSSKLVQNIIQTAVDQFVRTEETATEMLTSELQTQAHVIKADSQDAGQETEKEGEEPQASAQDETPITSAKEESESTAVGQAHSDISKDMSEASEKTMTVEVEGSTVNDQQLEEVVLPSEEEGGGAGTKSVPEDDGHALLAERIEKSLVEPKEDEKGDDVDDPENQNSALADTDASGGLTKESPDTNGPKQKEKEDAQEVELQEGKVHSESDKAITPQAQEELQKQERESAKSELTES
Experiment: co-IP; extracts of primary human HSCs (cultured 0, 3 or 6 days; WT or CRISPR-edited HDR cells; negative control or Prkca siRNA A or B); AKAP12-HSP47 co-immunoprecipitation and western blot
Settings: partners not purified

B1: heat-shock protein 47 (HSP47), human, endogenous (natural protein, UniProt P50454 19-418, looked up)
chain: AEVKKPAAAAAPGTAEKLSPKAATLAERSAGLAFSLYQAMAKDQAVENILVSPVVVASSLGLVSLGGKATTASQAKAVLSAEQLRDEEVHAGLGELLRSLSNSTARNVTWKLGSRLYGPSSVSFADDFVRSSKQHYNCEHSKINFRDKRSALQSINEWAAQTTDGKLPEVTKDVERTDGALLVNAMFFKPHWDEKFHHKMVDNRGFMVTRSYTVGVMMMHRTGLYNYYDDEKEKLQIVEMPLAHKLSSLIILMPHHVEPLERLEKLLTKEQLKIWMGKMQKKAVAISLPKGVVEVTHDLQKHLAGLGLTEAIDKNKADLSRMSGKKDLYLASVFHATAFELDTDGNPFDQDIYGREELRSPKLFYADHPFIFLVRDTQSGSLLFIGRLVRPKGDKMRDEL
notes: heat-shock protein 47 (HSP47), ER-resident collagen chaperone, human, endogenous in primary HSCs and liver tissue; source: endogenous, primary human HSC extracts and fixed cells; human liver tissue array
fold change of the AKAP12-HSP47 co-immunoprecipitate against WT cells: 2.5 fold
